Measurements from patent publication US20260130994A1.

Target: CD3ε on wildtype primary human T cells (human) (UniProt P07766)
Assay: cell-based or functional assay

Sequence of CAR4 (CD3ε.CD8α.4-1BB.CD3ζ), myc-tagged second-generation CAR with the OKT3 scFv, expressed on NK-92 cells (chain): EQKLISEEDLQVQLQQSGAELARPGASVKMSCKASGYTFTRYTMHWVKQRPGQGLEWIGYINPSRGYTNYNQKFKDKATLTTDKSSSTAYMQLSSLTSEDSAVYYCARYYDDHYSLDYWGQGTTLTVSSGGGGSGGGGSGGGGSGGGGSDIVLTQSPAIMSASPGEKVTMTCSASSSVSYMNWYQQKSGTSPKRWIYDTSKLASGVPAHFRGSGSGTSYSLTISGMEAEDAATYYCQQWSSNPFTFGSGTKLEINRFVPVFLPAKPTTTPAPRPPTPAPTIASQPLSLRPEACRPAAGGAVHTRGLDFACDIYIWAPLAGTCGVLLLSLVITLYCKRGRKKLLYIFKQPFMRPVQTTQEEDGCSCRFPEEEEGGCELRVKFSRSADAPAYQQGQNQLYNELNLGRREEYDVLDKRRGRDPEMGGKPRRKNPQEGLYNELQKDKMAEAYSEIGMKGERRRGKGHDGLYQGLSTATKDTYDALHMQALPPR

Which results are given for “CAR4 (CD3ε.CD8α.4-1BB.CD3ζ), myc-tagged second-generation CAR with the OKT3 scFv, expressed on NK-92 cells”?
average residual TCR+ T cells after co-culture in G-Rex, regimen 1:2A: 0.026%; average residual TCR+ T cells after co-culture in G-Rex, regimen 1:2B: 0.007%; removal of residual wildtype T cells, 2 co-culture cycles: > 99.9%; removal of residual wildtype T cells, single administration: 98.6%
